In patent US20120039865A1, “IDENTIFICATION OF SORTILIN AS A NEURONAL RECEPTOR FOR THE FRONTOTEMPORAL DEMENTIA PROTEIN, PROGRANULIN” (Yale University, priority 2008, published 2012):
“Also recorded” adds a separate entry of the source. Values belong to the molecule of their own block, whether it stands above or below them.

Columns and labels:
[1] = tested on: cortical neurons from E18 rat embryo cerebral cortex; experiment: Apoptosis assay (cleaved caspase 3) in cortical neuron cultures; assay type: cell-based; details: 100 nM, 36 hours, vs vehicle; 7 days in vitro
Procedure: In order to examine the PGRN-Sort1 interaction and the effects of PGRN on cerebral cortical cultures, apoptosis assays were performed. Cultures of cortical neurons were established from E18 rat embryo cerebral cortex, as described above, and maintained for 7 days in vitro. Then, the cells were exposed to vehicle or 100 nM purified PGRN protein for 36 hours. The cultures were maintained as mentioned above, and Flag-PGRN diluted in PBS or PBS vehicle were incubated in the cultures for 36 h. Thereafter, the cells were fixed with FA 15 mts and stained with anti-cleaved caspase 3 antibody (Cell Signaling) to detect apoptotic cells (FIG. 6A; shown in white) and with DAPI to detect all nuclei (FIG. 6A; shown in gray). […] These finding may relate indirectly to one study of immortalized cells linking PGRN to caspase-mediated cleavage of TDP43 (Zhang, Y. J., et al., J. Neurosci. 27:10530-10534 (2007)).

[2] = tested on: mouse E17 cortical neurons; experiment: AP-PGRN binding to mouse cortical neurons (wild type, sortilin +/- and -/-); details: 100 nM unlabeled competitor against 5 nM AP-PGRN, 1 hr preincubation
Procedure: (§1) Rat (Sprague-Dawley) cortical neurons were isolated from E18 embryos and cultured in vitro for 3-21 days. Cultures were maintained in Neurobasal-A medium supplemented with B27, GLUTAMAX™ (2 mM), sodium pyruvate (1 mM), penicillin, and streptomycin. The binding of 10 nM AP-PGRN or 10 nM AP was detected as a dark reaction product produced by alkaline phosphatase (AP). Binding was measured as follows. The AP tagged ligand (in NBA) was incubated with the cortical neurons for 1 hr at 4° C., washed three times with HBH buffer, fixed with formaldehyde, and after washing again with HBH the neurons were incubated in a 67° C. oven to inactivate the endogenous AP. The tagged AP was then visualized using AP substrate 5-bromo-4-chloro-3-indolyl phosphate/nitro blue tetrazolium, which results in a dark precipitate. […] The addition of 100 nM Flag-PGRN displaced 10 nM AP-PGRN (FIG. 1C, middle panel).
Binding was measured according to the methods described above by preincubating 100 nM PGRN with the cortical neurons for 1 hr and using a 5 nM AP-PGRN and 100 nM untagged PGRN mixture. […]
Gene-targeted sortilin −/− and +/− mice from Anders Nykjaer, M.D., Ph.D., Aarhus University, Aarhus, Denmark, were used to obtain cultures of cortical neurons. The binding of 2 nM AP-PGRN to cortical neurons isolated from sortilin −/− (FIG. 3B, left panel) and +/− (FIG. 3B, right panel) mice was evaluated. […]

[3] = biological target: Rat (Sprague-Dawley) cortical neurons; experiment: AP-tagged ligand binding to cultured rat cortical neurons; details: saturation analysis, FIG. 1D; read-out: affinity of neuronal binding sites for PGRN
Procedure: as §1

[4] = biological target: T1, sortilin-1 (Sort1; PGRN-R) (Mus musculus, UniProt Q6PHU5); experiment: AP-PGRN binding to COS-7 cells transfected with Sort1 cDNA
T1 construct: host or cells: COS-7 (ATCC No. CRL-1651)
T1 sequence (Q6PHU5 74-825): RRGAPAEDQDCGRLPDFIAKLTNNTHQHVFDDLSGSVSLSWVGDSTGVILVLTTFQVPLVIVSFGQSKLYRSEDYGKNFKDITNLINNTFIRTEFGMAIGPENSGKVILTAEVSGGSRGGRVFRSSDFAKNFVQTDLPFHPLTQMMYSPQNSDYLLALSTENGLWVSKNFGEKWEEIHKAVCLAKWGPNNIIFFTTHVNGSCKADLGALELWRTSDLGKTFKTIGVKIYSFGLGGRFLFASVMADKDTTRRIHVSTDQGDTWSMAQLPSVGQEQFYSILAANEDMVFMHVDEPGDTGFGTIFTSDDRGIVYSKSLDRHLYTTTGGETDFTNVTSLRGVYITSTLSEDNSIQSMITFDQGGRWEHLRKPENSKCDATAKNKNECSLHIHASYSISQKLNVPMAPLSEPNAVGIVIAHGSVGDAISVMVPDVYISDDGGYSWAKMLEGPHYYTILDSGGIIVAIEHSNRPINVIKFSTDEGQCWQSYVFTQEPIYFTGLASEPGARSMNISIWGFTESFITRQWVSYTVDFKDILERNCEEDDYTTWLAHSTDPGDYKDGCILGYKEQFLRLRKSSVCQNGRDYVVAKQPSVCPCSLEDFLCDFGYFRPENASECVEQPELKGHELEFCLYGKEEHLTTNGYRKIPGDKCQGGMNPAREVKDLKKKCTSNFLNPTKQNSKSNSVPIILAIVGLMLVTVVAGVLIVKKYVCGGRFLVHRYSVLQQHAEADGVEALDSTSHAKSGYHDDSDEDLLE
Procedure: as §1
To determine the molecular nature of the neuronal binding site of PGRN, expression cloning experiments utilizing AP-PGRN as a tagged ligand were conducted. COS-7 (ATCC No. CRL-1651) cells were transfected with expression vectors containing mouse cDNAs using FUGENE® 6 according to manufacturer's specifications (Roche). […]

sortilin = biological target: T2, sortilin (Homo sapiens, UniProt Q99523); experiment: PGRN binding to sortilin of human origin; details: data not shown
T2 sequence (Q99523 78-831): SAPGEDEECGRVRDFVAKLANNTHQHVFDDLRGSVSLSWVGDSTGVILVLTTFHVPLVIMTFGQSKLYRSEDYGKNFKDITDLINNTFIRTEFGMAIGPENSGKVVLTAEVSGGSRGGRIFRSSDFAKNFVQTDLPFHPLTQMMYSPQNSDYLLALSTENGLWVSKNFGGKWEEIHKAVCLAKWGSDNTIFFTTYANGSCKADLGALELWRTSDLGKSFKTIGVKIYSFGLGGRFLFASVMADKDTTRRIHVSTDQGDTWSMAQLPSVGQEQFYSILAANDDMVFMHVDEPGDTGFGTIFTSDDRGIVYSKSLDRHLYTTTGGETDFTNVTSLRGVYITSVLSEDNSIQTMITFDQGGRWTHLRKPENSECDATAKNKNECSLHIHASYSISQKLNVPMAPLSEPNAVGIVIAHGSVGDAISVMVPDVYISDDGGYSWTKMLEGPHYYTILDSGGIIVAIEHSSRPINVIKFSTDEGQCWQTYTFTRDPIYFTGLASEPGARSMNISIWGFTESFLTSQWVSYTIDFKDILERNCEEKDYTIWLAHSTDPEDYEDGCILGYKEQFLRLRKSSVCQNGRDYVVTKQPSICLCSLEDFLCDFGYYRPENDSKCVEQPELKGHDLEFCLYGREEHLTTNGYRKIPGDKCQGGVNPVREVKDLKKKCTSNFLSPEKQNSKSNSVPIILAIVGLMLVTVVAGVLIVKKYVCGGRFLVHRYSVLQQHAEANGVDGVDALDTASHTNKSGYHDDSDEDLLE
From the text: The human SorLA expression vector was provided by Anders Nykjaer, M.D., Ph.D., Aarhus University, Aarhus, Denmark (Jacobsen, L., et al., J. Biol. Chem. 276:22788-22796 (2001); Gliemann, J., et al., Biochem J. 381:203-212 (2004); GenBank Accession No. U60975), and the mouse SorCS1 expression vector in pCMV-Sport6 was obtained from Open Biosystems (GenBank Accession No. BC007486). […] A fragment of PGRN, termed PGRN-E in the literature, binds to sortilin with the same affinity as does full length PGRN (data not shown).

[5] = tested on: Cortical neurons isolated from E18 rat embryos; experiment: Neurite outgrowth assay in cortical neurons; assay type: cell-based; details: 100 nM, 1 day in vitro, vs vehicle
Procedure: To further examine the PGRN-Sort1 interaction, neurite outgrowth assays were performed. Cortical neurons were isolated from E18 rat embryos and cultured for 1 day in vitro with or without 100 nM purified Flag-PGRN protein, as described above. Neurites were then visualized with an anti-Beta III tubulin (Promega) using an automated image acquisition. Neurite outgrowth analysis was done using ImageXpress (Molecular Devices), and average neurite length was calculated. […] Although this finding differs from a recent report (Van Damme, P., et al., J. Cell Biol. 181:37-41 (2008)), it is possible that cell survival is the primary action of PGRN, and any outgrowth effect is secondary.

Sort1 = biological target: T3, Sort1 (Mus musculus, UniProt Q6PHU5); experiment: Affinity chromatography pull-down of Sort1 from brain lysate; assay type: binding; details: wild type brain lysate or extract
T3 construct: Brain lysate was prepared from mouse brain by homogenization in RIPA buffer; from tissue; host or cells: mouse brain lysate (RIPA buffer)
T3 sequence (Q6PHU5 74-825): T1 sequence (Q6PHU5 74-825)
Procedure: For affinity chromatography, glutathione S-transferase (GST) fused to the C-terminal segment of PGRN (amino acids 495 to the end) was produced in E. coli as a 45 kDa protein and then purified on glutathione-sepharose resin. Brain lysate was prepared from mouse brain by homogenization in RIPA buffer and then incubated with the GST-PGRN containing resin. After washing, bound protein was eluted with SDS and analyzed by anti-sortilin immunoblot. […] Thus, it can be unexpectedly concluded from these studies that PGRN and sortilin interact in a ligand/receptor-type complex on the cell surface.

displacement of AP-PGRN binding [2]: displaced
Kd [3]: ~20 nM
displacement of AP-PGRN binding ([4]; 100 nM untagged competitor against 5 nM AP-PGRN): displaceable
binding to sortilin of mouse origin ([4]; data not shown): binds
binding to sortilin of human origin (sortilin): binds
B1: PGRN: progranulin protein; unlabeled/untagged competitor in binding assays, purified Flag-PGRN in Example 2 cultures (protein)
chain: TQCPDGQFCPVACCLDQGGANYSCCNPLLDTWPRITSHHLDGSCQTHGHCPAGYSCLLTVSGTSSCCPFSKGVSCGDGYHCCPQGFHCSADGKSCFQMSDNPLGAVQCPGSQFECPDSATCCIMVDGSWGCCPMPQASCCEDRVHCCPHGASCDLVHTRCVSPTGTHTLLKKFPAQKTNRAVSLPFSVVCPDAKTQCPDDSTCCELPTGKYGCCPMPNAICCSDHLHCCPQDTVCDLIQSKCLSKNYTTDLLTKLPGYPVKEVKCDMEVSCPEGYTCCRLNTGAWGCCPFAKAVCCEDHIHCCPAGFQCHTEKGTCEMGILQVPWMKKVIAPLRLPDPQILKSDTPCDDFTRCPTNNTCCKLNSGDWGCCPIPEAVCCSDNQHCCPQGFTCLAQGYCQKGDTMVAGLEKIPARQTTPLQIGDIGCDQHTSCPVGQTCCPSLKGSWACCQLPHAVCCEDRQHCCPAGYTCNVKARTCEKDVDFIQPPVLLTLGPKVGNVECGEGHFCHDNQTCCKDSAGVWACCPYLKGVCCRDGRHCCPGGFHCSARGTKCLRKKIPRWDMFLRDPVPRPLL
number of cells positive for cleaved caspase-3 [1]: less
cortical neurite outgrowth (βIII tubulin) [5]: No PGRN-induced change; also recorded: no significant difference

pull-down of Sort1 (anti-sortilin immunoblot) (Sort1): immunoreactive Sort1 band was detected
B2: GST-PGRN: glutathione S-transferase (GST) fused to the C-terminal segment of PGRN (amino acids 495 to the end), produced in E. coli (protein)
chain: CEKEVVSAQPATFLARSPHVGVKDVECGEGHFCHDNQTCCRDNRQGWACCPYRQGVCCADRRHCCPAGFRCAARGTKCLRREAPRWDAPLRDPALRQLL
modifications: left off: a dimerising Fc or GST
notes: glutathione S-transferase (GST) fused to the C-terminal segment of PGRN (amino acids 495 to the end), produced in E. coli
